Assay results as given in patent US20260108556A1 (ABELZETA, published 2026).

What was measured:
[1] = target: F11R (human) (UniProt Q9Y624); assay: flow cytometry, HEK293T membrane protein array, 20 µg/mL and 5 µg/mL
[2] = target: FCGR1A (human) (UniProt P12314); assay: flow cytometry, HEK293T membrane protein array
[3] = target: T1, CLEC2B (human, UniProt Q92478 1-149); assay: flow cytometry, HEK293T membrane protein array, 20 µg/mL and 5 µg/mL
T1 construct: whole, on cells
T1 sequence (looked up): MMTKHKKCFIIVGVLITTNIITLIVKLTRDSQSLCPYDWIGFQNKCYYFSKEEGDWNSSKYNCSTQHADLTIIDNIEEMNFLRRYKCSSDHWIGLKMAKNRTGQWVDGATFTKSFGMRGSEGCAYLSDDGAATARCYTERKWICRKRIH
Source text: (§1) In the membrane protein array, genetic engineering methods are used to construct the full-length cDNA sequences of human membrane proteins into expression vectors, which are then transiently transfected into HEK293T cells and arranged into an array by using microfluidic technology or chip printing technology. It is a high-throughput screening technology for studying the interaction between test substances and membrane proteins.
(§2) A chimeric rabbit monoclonal antibody, C-CAR168 scFv-RabFc, was generated by linking the anti-CD20 scFv (e.g., derived from the Ofatumumab mAb) and the anti-BCMA scFv (e.g., derived from the BCMA-20 mAb) in frame with a rabbit IgG Fc region. The chimeric antibody was added at a concentration of 20 μg/mL to the HEK293T cell array transiently transfected with 5220 membrane proteins. […] The average fluorescence intensity of its binding to CD20 and BCMA in flow cytometry was about 60-fold and 110-fold of that of the negative control group, respectively (FIG. 8B). […] This is mainly due to the binding between FCGR1A and the rabbit-derived Fc of the recombinant protein; so there is no relevant risk in clinical applications.

[4] = target: T2, MPZ (human, UniProt P25189 30-248); assay: as above
T2 construct: whole, on cells
T2 sequence (looked up): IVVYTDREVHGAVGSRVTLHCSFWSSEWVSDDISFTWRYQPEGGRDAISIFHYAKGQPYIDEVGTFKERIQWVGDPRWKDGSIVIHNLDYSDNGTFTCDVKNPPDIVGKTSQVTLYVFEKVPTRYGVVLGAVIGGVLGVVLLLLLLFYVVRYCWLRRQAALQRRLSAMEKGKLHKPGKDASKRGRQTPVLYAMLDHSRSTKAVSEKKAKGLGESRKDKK
Source text: as §1, §2

[5] = target: T3, MC2R (human, UniProt Q01718 1-297); assay: as above
T3 construct: whole, on cells
Source text: as §1, §2

[6] = target: T4, human BCMA (human, UniProt Q02223 1-184); assay: flow cytometry, HEK293T membrane protein array
T4 construct: whole, on cells; also called B-cell maturation antigen; TNFRSF17
T4 sequence (looked up): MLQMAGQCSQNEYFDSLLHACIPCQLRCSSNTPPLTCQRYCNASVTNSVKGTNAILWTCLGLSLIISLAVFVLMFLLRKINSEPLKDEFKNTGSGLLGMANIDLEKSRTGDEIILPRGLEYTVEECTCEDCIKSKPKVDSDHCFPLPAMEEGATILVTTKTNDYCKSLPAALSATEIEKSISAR
Source text: as §1, §2

[7] = target: T5, human CD20 (human, UniProt P11836 1-297); assay: flow cytometry, HEK293T membrane protein array
T5 construct: whole, on cells; also called B1; MS4A
T5 sequence (looked up): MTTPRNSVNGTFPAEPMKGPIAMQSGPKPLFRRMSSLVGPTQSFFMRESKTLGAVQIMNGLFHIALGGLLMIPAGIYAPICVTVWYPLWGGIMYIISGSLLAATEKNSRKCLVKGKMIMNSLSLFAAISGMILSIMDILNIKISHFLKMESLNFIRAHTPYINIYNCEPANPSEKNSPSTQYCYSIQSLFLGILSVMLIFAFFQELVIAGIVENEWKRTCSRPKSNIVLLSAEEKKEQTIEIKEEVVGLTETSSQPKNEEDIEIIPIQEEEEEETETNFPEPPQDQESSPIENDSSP
Source text: as §1, §2

Chain of FCGR1A (human) (P12314 16-374): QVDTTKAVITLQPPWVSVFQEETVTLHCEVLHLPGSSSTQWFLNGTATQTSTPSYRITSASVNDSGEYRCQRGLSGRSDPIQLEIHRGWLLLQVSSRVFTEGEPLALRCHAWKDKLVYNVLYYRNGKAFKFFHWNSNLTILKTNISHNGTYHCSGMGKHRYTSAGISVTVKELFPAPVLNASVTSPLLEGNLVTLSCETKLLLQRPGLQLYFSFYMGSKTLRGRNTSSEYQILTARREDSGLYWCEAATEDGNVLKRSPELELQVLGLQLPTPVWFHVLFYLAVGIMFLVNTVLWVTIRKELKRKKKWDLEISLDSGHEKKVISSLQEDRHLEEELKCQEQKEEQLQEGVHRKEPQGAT
Chain of F11R (human) (Q9Y624 28-299, stated change not applied): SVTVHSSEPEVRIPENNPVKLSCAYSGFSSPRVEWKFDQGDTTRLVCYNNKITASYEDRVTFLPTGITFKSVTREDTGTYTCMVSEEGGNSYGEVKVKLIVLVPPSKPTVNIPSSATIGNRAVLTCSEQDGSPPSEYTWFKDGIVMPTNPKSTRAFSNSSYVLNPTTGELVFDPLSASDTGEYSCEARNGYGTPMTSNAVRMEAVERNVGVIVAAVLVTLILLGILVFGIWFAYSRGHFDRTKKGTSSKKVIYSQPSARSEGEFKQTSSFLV
T3 sequence (Q01718 whole entry): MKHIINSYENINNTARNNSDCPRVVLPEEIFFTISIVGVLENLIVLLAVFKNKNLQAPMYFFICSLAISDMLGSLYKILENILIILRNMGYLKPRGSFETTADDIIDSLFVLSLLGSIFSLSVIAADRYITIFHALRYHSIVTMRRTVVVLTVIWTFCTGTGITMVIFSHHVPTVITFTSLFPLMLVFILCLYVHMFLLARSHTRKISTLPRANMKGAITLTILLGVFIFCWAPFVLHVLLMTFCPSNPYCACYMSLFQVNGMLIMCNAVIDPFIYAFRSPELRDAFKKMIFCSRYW

B1: C-CAR168 scFv-RabFc (Fc fusion)
chain: EIVLTQSPATLSLSPGERATLSCRASQSVSSYLAWYQQKPGQAPRLLIYDASNRATGIPARFSGSGSGTDFTLTISSLEPEDFAVYYCQQRSNWPITFGQGTRLEIKGSTSGGGSGGGSGGGGSSEVQLVESGGGLVQPGRSLRLSCAASGFTFNDYAMHWVRQAPGKGLEWVSTISWNSGSIGYADSVKGRFTISRDNAKKSLYLQMNSLRAEDTALYYCAKDIQYGNYYYGMDVWGQGTTVTVSSGGGGSDIQMTQSPSSLSASVGDRVTITCRASQGISNYLNWYQQKPGKAPKPLIYYTSNLQSGVPSRFSGSGSGTDYTLTISSLQPEDFATYYCMGQTISSYTFGQGTKLEIKGGGGSGGGGSGGGGSEVQLVESGGGLVQPGGSLRLSCAASGFTFSNFDMAWVRQAPGKGLVWVSSITTGADHAIYADSVKGRFTISRDNAKNTLYLQMNSLRAEDTAVYYCVRHGYYDGYHLFDYWGQGTLVTVSS
notes: also called chimeric rabbit monoclonal antibody; not shown: rabbit IgG Fc region
With B1 the average fluorescence intensity, fold of the negative control group [1] was under 2 fold, the average fluorescence intensity, fold of the negative control group [2] was 2.5 fold and the “average fluorescence intensity, fold of the negative control group” value (shortened to “average fluorescence intensity, fold”) [3] was at most 2 fold. The “average fluorescence intensity, fold” value [4] was at most 2 fold, the “average fluorescence intensity, fold” value [5] was at most 2 fold and the “average fluorescence intensity, fold” value [6] was about 110 fold. For the same binder, the “average fluorescence intensity, fold” value [7] was about 60 fold.
